Results on 113 variants are retold here after the Human Domainome abundance scans (Beltran et al. 2025).

± gives the uncertainty stated by the source.

The labels stand for the following.
B1: Gamma-crystallin C, residues 4 to 79; numbered along this chain, P07315 (parent)
chain: ITFYEDRAFQGRSYETTTDCPNLQPYFSRCNSIRVESGCWMLYERPNYQGQQYLLRRGEYPDYQQWMGLSDSIRSC
B2: Tyrosine-protein kinase Lck, residues 63 to 120; numbered along this chain, P06239 (parent)
chain: DNLVIALHSYEPSHDGDLGFEKGEQLRILEQSGEWWKAQSLTTGQEGFIPFNFVAKAN

One series covers variants of B1. The series can be described thus: abundance fitness (aPCA) (normalised: wild type 0, dead -1); higher = more abundant; growth selection in yeast, the domain comes from the species named. The following applies: Homo sapiens.
As for VTFYEDRAFQGRSYETTTDCPNLQPYFSRCNSIRVESGCWMLYERPNYQGQQYLLRRGEYPDYQQWMGLSDSIRSC, the abundance fitness is -0.032 ± 0.27.
Consider LTFYEDRAFQGRSYETTTDCPNLQPYFSRCNSIRVESGCWMLYERPNYQGQQYLLRRGEYPDYQQWMGLSDSIRSC, for which the abundance fitness was -0.4 ± 0.38.
Same read-out and setting: with MTFYEDRAFQGRSYETTTDCPNLQPYFSRCNSIRVESGCWMLYERPNYQGQQYLLRRGEYPDYQQWMGLSDSIRSC the figure was -0.291 ± 0.16; with TTFYEDRAFQGRSYETTTDCPNLQPYFSRCNSIRVESGCWMLYERPNYQGQQYLLRRGEYPDYQQWMGLSDSIRSC, -0.722 ± 0.3; with ITNYEDRAFQGRSYETTTDCPNLQPYFSRCNSIRVESGCWMLYERPNYQGQQYLLRRGEYPDYQQWMGLSDSIRSC, -0.826 ± 0.21.
Still for that read-out and setting: with ITLYEDRAFQGRSYETTTDCPNLQPYFSRCNSIRVESGCWMLYERPNYQGQQYLLRRGEYPDYQQWMGLSDSIRSC the figure was -0.036 ± 0.078.
Still for that read-out and setting: with ITGYEDRAFQGRSYETTTDCPNLQPYFSRCNSIRVESGCWMLYERPNYQGQQYLLRRGEYPDYQQWMGLSDSIRSC the figure was -1.23 ± 0.23.
As for ITKYEDRAFQGRSYETTTDCPNLQPYFSRCNSIRVESGCWMLYERPNYQGQQYLLRRGEYPDYQQWMGLSDSIRSC, the abundance fitness was -0.991 ± 0.27.
Same read-out and setting: with ITQYEDRAFQGRSYETTTDCPNLQPYFSRCNSIRVESGCWMLYERPNYQGQQYLLRRGEYPDYQQWMGLSDSIRSC the figure was -0.94 ± 0.23; with ITRYEDRAFQGRSYETTTDCPNLQPYFSRCNSIRVESGCWMLYERPNYQGQQYLLRRGEYPDYQQWMGLSDSIRSC, -1.18 ± 0.28.
The same measure, in the same setting: with ITPYEDRAFQGRSYETTTDCPNLQPYFSRCNSIRVESGCWMLYERPNYQGQQYLLRRGEYPDYQQWMGLSDSIRSC the figure was -1 ± 0.36; with ITCYEDRAFQGRSYETTTDCPNLQPYFSRCNSIRVESGCWMLYERPNYQGQQYLLRRGEYPDYQQWMGLSDSIRSC, -0.586 ± 0.13.
Turning to ITIYEDRAFQGRSYETTTDCPNLQPYFSRCNSIRVESGCWMLYERPNYQGQQYLLRRGEYPDYQQWMGLSDSIRSC, the abundance fitness is -0.368 ± 0.18.
For ITMYEDRAFQGRSYETTTDCPNLQPYFSRCNSIRVESGCWMLYERPNYQGQQYLLRRGEYPDYQQWMGLSDSIRSC, the abundance fitness was -0.071 ± 0.085.
Same read-out and setting: with IEFYEDRAFQGRSYETTTDCPNLQPYFSRCNSIRVESGCWMLYERPNYQGQQYLLRRGEYPDYQQWMGLSDSIRSC the figure was -0.473 ± 0.15; with ICFYEDRAFQGRSYETTTDCPNLQPYFSRCNSIRVESGCWMLYERPNYQGQQYLLRRGEYPDYQQWMGLSDSIRSC, -0.054 ± 0.35.
For IIFYEDRAFQGRSYETTTDCPNLQPYFSRCNSIRVESGCWMLYERPNYQGQQYLLRRGEYPDYQQWMGLSDSIRSC, the abundance fitness was found to be 0.093 ± 0.25.
As for IYFYEDRAFQGRSYETTTDCPNLQPYFSRCNSIRVESGCWMLYERPNYQGQQYLLRRGEYPDYQQWMGLSDSIRSC, the abundance fitness amounted to 0.088 ± 0.34.
Still for that read-out and setting: with ILFYEDRAFQGRSYETTTDCPNLQPYFSRCNSIRVESGCWMLYERPNYQGQQYLLRRGEYPDYQQWMGLSDSIRSC the figure was -0.15 ± 0.097.
IPFYEDRAFQGRSYETTTDCPNLQPYFSRCNSIRVESGCWMLYERPNYQGQQYLLRRGEYPDYQQWMGLSDSIRSC: the abundance fitness is -0.838 ± 0.17.
Regarding IQFYEDRAFQGRSYETTTDCPNLQPYFSRCNSIRVESGCWMLYERPNYQGQQYLLRRGEYPDYQQWMGLSDSIRSC, the abundance fitness is -0.114 ± 0.16.
The same measure, in the same setting: with IKFYEDRAFQGRSYETTTDCPNLQPYFSRCNSIRVESGCWMLYERPNYQGQQYLLRRGEYPDYQQWMGLSDSIRSC the figure was -0.039 ± 0.12; with IMFYEDRAFQGRSYETTTDCPNLQPYFSRCNSIRVESGCWMLYERPNYQGQQYLLRRGEYPDYQQWMGLSDSIRSC, -0.116 ± 0.42.
Consider IAFYEDRAFQGRSYETTTDCPNLQPYFSRCNSIRVESGCWMLYERPNYQGQQYLLRRGEYPDYQQWMGLSDSIRSC, for which the abundance fitness was -0.254 ± 0.098.
Take INFYEDRAFQGRSYETTTDCPNLQPYFSRCNSIRVESGCWMLYERPNYQGQQYLLRRGEYPDYQQWMGLSDSIRSC: the abundance fitness was -0.002 ± 0.33.
Still for that read-out and setting: with IGFYEDRAFQGRSYETTTDCPNLQPYFSRCNSIRVESGCWMLYERPNYQGQQYLLRRGEYPDYQQWMGLSDSIRSC the figure was -0.329 ± 0.093; with IRFYEDRAFQGRSYETTTDCPNLQPYFSRCNSIRVESGCWMLYERPNYQGQQYLLRRGEYPDYQQWMGLSDSIRSC, -0.145 ± 0.099; with IVFYEDRAFQGRSYETTTDCPNLQPYFSRCNSIRVESGCWMLYERPNYQGQQYLLRRGEYPDYQQWMGLSDSIRSC, 0.049 ± 0.13.
As for IWFYEDRAFQGRSYETTTDCPNLQPYFSRCNSIRVESGCWMLYERPNYQGQQYLLRRGEYPDYQQWMGLSDSIRSC, the abundance fitness is -0.201 ± 0.12.
The same measure, in the same setting: with IFFYEDRAFQGRSYETTTDCPNLQPYFSRCNSIRVESGCWMLYERPNYQGQQYLLRRGEYPDYQQWMGLSDSIRSC the figure was 0.101 ± 0.32.

Variants of B2 are the subject of another series. Described as above. The following applies: Homo sapiens.
In the case of F53S, the abundance fitness was 0.032 ± 0.071.
The same measure, in the same setting: with F53N the figure was -0.527 ± 0.11.
Still for that read-out and setting: with F53L the figure was -0.028 ± 0.071; with F53I, -0.156 ± 0.11.
As for F53T, the abundance fitness was -0.214 ± 0.1.
As for F53V, the abundance fitness was -0.268 ± 0.066.
On the same count and under the same terms, with F53K the figure was -0.37 ± 0.13; with F53Q, -0.293 ± 0.1; with F53H, -0.162 ± 0.11.
The same measure, in the same setting: with F53P the figure was -0.842 ± 0.15.
With F53W, the abundance fitness was -0.107 ± 0.11.
In the case of F53E, the abundance fitness was -0.488 ± 0.12.
Same read-out and setting: with F53C the figure was -0.157 ± 0.096; with F53A, -0.013 ± 0.07; with F53M, -0.143 ± 0.12.
F53G: the abundance fitness is -0.423 ± 0.077.
Still for that read-out and setting: with F53R the figure was -0.196 ± 0.066; with N52G, -0.067 ± 0.07.
In the case of N52Q, the abundance fitness was -0.021 ± 0.12.
With N52P, the abundance fitness is -0.628 ± 0.12.
The same measure, in the same setting: with N52F the figure was -0.589 ± 0.14; with N52Y, -0.311 ± 0.12.
The same measure, in the same setting: with N52E the figure was 0.029 ± 0.12; with N52H, -0.189 ± 0.11.
The same measure, in the same setting: with N52C the figure was -0.303 ± 0.14; with N52K, 0.023 ± 0.14.
In the case of N52R, the abundance fitness was -0.017 ± 0.073.
Take N52I: the abundance fitness was -0.854 ± 0.22.
As to N52T, the abundance fitness was -0.207 ± 0.12.
For N52D, the abundance fitness amounted to 0.001 ± 0.14.
The same measure, in the same setting: with N52A the figure was -0.202 ± 0.082; with N52L, -0.624 ± 0.087.
The same measure, in the same setting: with N52W the figure was -0.278 ± 0.12.
On to N52V, for which the abundance fitness was -0.709 ± 0.11.
Same read-out and setting: with E46W the figure was -0.517 ± 0.1.
As to E46S, the abundance fitness is 0.021 ± 0.091.
Still for that read-out and setting: with E46V the figure was 0.042 ± 0.083; with E46R, -0.207 ± 0.068; with E46Q, -0.038 ± 0.11.
Same read-out and setting: with E46Y the figure was -0.316 ± 0.12.
On the same count and under the same terms, with E46P the figure was -0.745 ± 0.15; with V54Y, -0.826 ± 0.16; with V54M, -0.715 ± 0.2.
For V54S, the abundance fitness is -0.751 ± 0.11.
On the same count and under the same terms, with V54K the figure was -1.05 ± 0.21; with V54T, -0.45 ± 0.14.
The same measure, in the same setting: with V54Q the figure was -0.901 ± 0.21; with V54C, -0.375 ± 0.098; with V54L, -0.705 ± 0.1.
Take V54F: the abundance fitness is -0.6 ± 0.16.
On to V54W, for which the abundance fitness was -0.754 ± 0.11.
The same measure, in the same setting: with V54A the figure was -0.663 ± 0.11.
For the variant V54N, the abundance fitness was -0.859 ± 0.24.
In the case of V54H, the abundance fitness is -0.967 ± 0.23.
Turning to V54R, the abundance fitness is -0.813 ± 0.081.
On the same count and under the same terms, with V54P the figure was -0.732 ± 0.15; with V54E, -0.709 ± 0.13; with V54I, -0.416 ± 0.11.
Still for that read-out and setting: with V54D the figure was -0.926 ± 0.2.
Still for that read-out and setting: with A57H the figure was -0.057 ± 0.15; with A57E, 0.092 ± 0.15.
Turning to A57I, the abundance fitness was -0.003 ± 0.19.
Still for that read-out and setting: with A57P the figure was -0.046 ± 0.095; with A57G, -0.076 ± 0.078.
Consider A57M, for which the abundance fitness is -0.195 ± 0.16.
Same read-out and setting: with A57Q the figure was -0.112 ± 0.15; with A57L, 0.003 ± 0.095; with A57R, -0.093 ± 0.087.
Still for that read-out and setting: with A57V the figure was -0.023 ± 0.085; with A57F, -0.394 ± 0.18; with A57K, -0.18 ± 0.17.
On to A57N, for which the abundance fitness was -0.614 ± 0.42.
As for A57S, the abundance fitness is -0.098 ± 0.086.
On the same count and under the same terms, with A57C the figure was -0.244 ± 0.17.
Take A57Y: the abundance fitness was -0.176 ± 0.27.
Still for that read-out and setting: with A57T the figure was 0.008 ± 0.093; with A57W, -0.132 ± 0.16; with F48I, -0.264 ± 0.18.
The same measure, in the same setting: with F48E the figure was -0.286 ± 0.085; with F48K, 0.115 ± 0.096.
The same measure, in the same setting: with F48H the figure was -0.172 ± 0.17; with F48L, 0.019 ± 0.07.
For F48P, the abundance fitness is -0.52 ± 0.12.
